EC50, inhibition of VEGF (10 ng/ml) dependent HUVE cell proliferation data for 1 substance are collected here from patent publication US20080292628A1.

For the assay, the target named is human VEGF (human) (UniProt P15692). Nature of the assay: cell-based or functional assay.
Chain of UniProt P15692 (P15692 other isoform, or with tags, fused parts or gaps limits assumed): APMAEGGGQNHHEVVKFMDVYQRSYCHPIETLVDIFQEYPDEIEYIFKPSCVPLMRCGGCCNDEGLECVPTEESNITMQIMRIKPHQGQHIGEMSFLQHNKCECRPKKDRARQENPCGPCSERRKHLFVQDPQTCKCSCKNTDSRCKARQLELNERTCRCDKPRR

VEGFR1-Fc-IL-1ra (Fc fusion) displayed an EC50, inhibition of VEGF (10 ng/ml) dependent HUVE cell proliferation of 0.015 µg/mL.
